Data: US11214614B2, “LTBP complex-specific inhibitors of TGFβ and uses thereof” (Scholar Rock, Inc., priority 2019, dated 2022)

These molecules were tested on proTGFβ1 presented by endogenous LTBP1/3 in LN229 cells (assay: Endogenous LTBP caga assay: LN229 cells transfected with human proTGFβ1 only, CAGA12 luciferase reporter cells). Settings: Table 20: protocol of Example 10 with Fabs (RefAb also as hIgG4), assay format not stated.
Format: cell-based

proTGFβ1 presented by endogenous LTBP1/3 in LN229 cells, sequence (P01137 30-390): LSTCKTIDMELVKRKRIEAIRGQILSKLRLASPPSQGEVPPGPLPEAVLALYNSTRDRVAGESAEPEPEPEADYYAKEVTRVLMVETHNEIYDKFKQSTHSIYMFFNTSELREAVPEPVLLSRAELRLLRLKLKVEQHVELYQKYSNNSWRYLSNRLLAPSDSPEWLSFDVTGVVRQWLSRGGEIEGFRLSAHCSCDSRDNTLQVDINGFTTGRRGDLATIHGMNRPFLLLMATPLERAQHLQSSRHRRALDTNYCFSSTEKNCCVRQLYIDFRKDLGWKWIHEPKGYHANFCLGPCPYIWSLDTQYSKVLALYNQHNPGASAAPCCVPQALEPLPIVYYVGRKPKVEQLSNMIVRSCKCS

| Molecule | IC50 [nM] |
| --- | --- |
| SR-AB48 Fab (antibody, V domains shown) VH: QVQLVESGGGVVQPGRSLRLSCAASGFTFRSYVMHWVRQAPGKGLEWVAVISHEGSGKYYADSVKGRFTISRDNSKNTLYLQMNSLRAEDTAVYYCARPRIAARRGGFGSWGQGTLVTVSS VL: NFMLTQPHSVSESPGKTVTISCTRSSGNIDYNYVQWYQQRPGSSPTTVIYEDNVRPSGVPDRFSGSIDSSSNSASLTISGLKTEDEADYYCQSYDYDTQGVVFGGGTKLTVL | 0.523 |
| SR-AB50 Fab (antibody, V domains shown) VH: QVQLVESGGGVVQPGRSLRLSCAASGFTFRSYVMHWVRQAPGKGLEWVAVISHEGSGKYYADSVKGRFTISRDNSKNTLYLQMNSLRAEDTAVYYCARPRIAARRGGFGTWGQGTLVTVSS VL: NFMLTQPHSVSESPGKTVTISCTRSSGNIDYNYVQWYQQRPGSSPTTVIYEDNVRPSGVPDRFSGSIDSSSNSASLTISGLKTEDEADYYCQSYDSDNQRVVFGGGTKLTVL | 11 |
| SR-AB47 Fab (antibody, V domains shown) VH: QVQLVESGGGVVQPGRSLRLSCAASGFTFRSYVMHWVRQAPGKGLEWVAVISHEGSGKYYADSVKGRFTISRDNSKNTLYLQMNSLRAEDTAVYYCARPRIAARRGGFGSWGQGTLVTVSS VL: NFMLTQPHSVSESPGKTVTISCTRSSGNIDYNYVQWYQQRPGSSPTTVIYEDNVRPSGVPDRFSGSIDSSSNSASLTISGLKTEDEADYYCQSYDYDNQAVVFGGGTKLTVL | 0.186 |
| SR-AB49 Fab (antibody, V domains shown) VH: QVQLVESGGGVVQPGRSLRLSCAASGFTFRSYVMHWVRQAPGKGLEWVAVISHEGSGKYYADSVKGRFTISRDNSKNTLYLQMNSLRAEDTAVYYCARPRIAARRGGFGSWGQGTLVTVSS VL: NFMLTQPHSVSESPGKTVTISCTRSSGNIDYNYVQWYQQRPGSSPTTVIYEDNVRPSGVPDRFSGSIDSSSNSASLTISGLKTEDEADYYCQGYDWDTQGVVFGGGTKLTVL | 1.02 |
| SR-AB51 Fab (antibody, V domains shown) VH: QVQLVESGGGVVQPGRSLRLSCAASGFTFRSYVMHWVRQAPGKGLEWVAVISHEGSGKYYADSVKGRFTISRDNSKNTLYLQMNSLRAEDTAVYYCARPRIAARRGGFGTWGQGTLVTVSS VL: NFMLTQPHSVSESPGKTVTISCTRSSGNIDYNYVQWYQQRPGSSPTTVIYEDNVRPSGVPDRFSGSIDSSSNSASLTISGLKTEDEADYYCQSYDYDNQAVVFGGGTKLTVL | 0.535 |
| SR-AB53 Fab (antibody, V domains shown) VH: QVQLVESGGGVVQPGRSLRLSCAASGFTFRSYVMHWVRQAPGKGLEWVAVISHEGSGKYYADSVKGRFTISRDNSKNTLYLQMNSLRAEDTAVYYCARPRIAARRGGFGTWGQGTLVTVSS VL: NFMLTQPHSVSESPGKTVTISCTRSSGNIDYNYVQWYQQRPGSSPTTVIYEDNVRPSGVPDRFSGSIDSSSNSASLTISGLKTEDEADYYCQGYDWDTQGVVFGGGTKLTVL | 1.18 |
| SR-AB52 Fab (antibody, V domains shown) VH: QVQLVESGGGVVQPGRSLRLSCAASGFTFRSYVMHWVRQAPGKGLEWVAVISHEGSGKYYADSVKGRFTISRDNSKNTLYLQMNSLRAEDTAVYYCARPRIAARRGGFGTWGQGTLVTVSS VL: NFMLTQPHSVSESPGKTVTISCTRSSGNIDYNYVQWYQQRPGSSPTTVIYEDNVRPSGVPDRFSGSIDSSSNSASLTISGLKTEDEADYYCQSYDYDTQGVVFGGGTKLTVL | 0.459 |
| SR-AB42 Fab (antibody, V domains shown) VH: QVQLVESGGGVVQPGRSLRLSCAASGFTFRSYVMHWVRQAPGKGLEWVAVISHEGSLKYYADSVKGRFTISRDNSKNTLYLQMNSLRAEDTAVYYCARPRIAARRGGFGYWGQGTLVTVSS VL: NFMLTQPHSVSESPGKTVTISCTRSSGNIDNNYVQWYQQRPGSSPTTVIYEDNQRPSGVPDRFSGSIDSSSNSASLTISGLKTEDEADYYCQSYDYDTQGVVFGGGTKLTVL | 0.667 |
| SR-AB23 Fab (antibody, V domains shown) VH: QVQLVESGGGVVQPGRSLRLSCAASGFTFRSYVMHWVRQAPGKGLEWVAVISHEGSLKYYADSVKGRFTISRDNSKNTLYLQMNSLRAEDTAVYYCARPRIAARRGGFGYWGQGTLVTVSS VL: NFMLTQPHSVSESPGKTVTISCTRSSGNIDNNYVQWYQQRPGSSPTTVIYEDNQRPSGVPDRFSGSIDSSSNSASLTISGLKTEDEADYYCQSYDSDNQGVVFGGGTKLTVL | 8.53 |

More lines, now with the values ahead:

| IC50 [nM] | Molecule |
| --- | --- |
| 0.742 | SR-AB60 Fab (antibody, V domains shown) VH: QVQLVESGGGVVQPGRSLRLSCAASGFTFRSYVMHWVRQAPGKGLEWVAVISHEGSGKYYADSVKGRFTISRDNSKNTLYLQMNSLRAEDTAVYYCALPRIAARRGGFGTWGQGTLVTVSS VL: NFMLTQPHSVSESPGKTVTISCTRSSGNIDYNYVQWYQQRPGSSPTTVIYEDNVRPSGVPDRFSGSIDSSSNSASLTISGLKTEDEADYYCQSYDYDTQGVVFGGGTKLTVL |
| 0.439 | SR-Ab56 Fab (antibody, V domains shown) VH: QVQLVESGGGVVQPGRSLRLSCAASGFTFRSYVMHWVRQAPGKGLEWVAVISHEGSGKYYADSVKGRFTISRDNSKNTLYLQMNSLRAEDTAVYYCALPRIAARRGGFGSWGQGTLVTVSS VL: NFMLTQPHSVSESPGKTVTISCTRSSGNIDYNYVQWYQQRPGSSPTTVIYEDNVRPSGVPDRFSGSIDSSSNSASLTISGLKTEDEADYYCQSYDYDTQGVVFGGGTKLTVL |
| 0.536 | SR-AB55 Fab (antibody, V domains shown) VH: QVQLVESGGGVVQPGRSLRLSCAASGFTFRSYVMHWVRQAPGKGLEWVAVISHEGSGKYYADSVKGRFTISRDNSKNTLYLQMNSLRAEDTAVYYCALPRIAARRGGFGSWGQGTLVTVSS VL: NFMLTQPHSVSESPGKTVTISCTRSSGNIDYNYVQWYQQRPGSSPTTVIYEDNVRPSGVPDRFSGSIDSSSNSASLTISGLKTEDEADYYCQSYDYDNQAVVFGGGTKLTVL |
| 0.775 | SR-AB57 Fab (antibody, V domains shown) VH: QVQLVESGGGVVQPGRSLRLSCAASGFTFRSYVMHWVRQAPGKGLEWVAVISHEGSGKYYADSVKGRFTISRDNSKNTLYLQMNSLRAEDTAVYYCALPRIAARRGGFGSWGQGTLVTVSS VL: NFMLTQPHSVSESPGKTVTISCTRSSGNIDYNYVQWYQQRPGSSPTTVIYEDNVRPSGVPDRFSGSIDSSSNSASLTISGLKTEDEADYYCQGYDWDTQGVVFGGGTKLTVL |
| 5.87 | SR-AB54 Fab (antibody, V domains shown) VH: QVQLVESGGGVVQPGRSLRLSCAASGFTFRSYVMHWVRQAPGKGLEWVAVISHEGSGKYYADSVKGRFTISRDNSKNTLYLQMNSLRAEDTAVYYCALPRIAARRGGFGSWGQGTLVTVSS VL: NFMLTQPHSVSESPGKTVTISCTRSSGNIDYNYVQWYQQRPGSSPTTVIYEDNVRPSGVPDRFSGSIDSSSNSASLTISGLKTEDEADYYCQSYDSDNQRVVFGGGTKLTVL |
| 4.86 | SR-AB58 Fab (antibody, V domains shown) VH: QVQLVESGGGVVQPGRSLRLSCAASGFTFRSYVMHWVRQAPGKGLEWVAVISHEGSGKYYADSVKGRFTISRDNSKNTLYLQMNSLRAEDTAVYYCALPRIAARRGGFGTWGQGTLVTVSS VL: NFMLTQPHSVSESPGKTVTISCTRSSGNIDYNYVQWYQQRPGSSPTTVIYEDNVRPSGVPDRFSGSIDSSSNSASLTISGLKTEDEADYYCQSYDSDNQRVVFGGGTKLTVL |
| 0.195 | SR-AB59 Fab (antibody, V domains shown) VH: QVQLVESGGGVVQPGRSLRLSCAASGFTFRSYVMHWVRQAPGKGLEWVAVISHEGSGKYYADSVKGRFTISRDNSKNTLYLQMNSLRAEDTAVYYCALPRIAARRGGFGTWGQGTLVTVSS VL: NFMLTQPHSVSESPGKTVTISCTRSSGNIDYNYVQWYQQRPGSSPTTVIYEDNVRPSGVPDRFSGSIDSSSNSASLTISGLKTEDEADYYCQSYDYDNQAVVFGGGTKLTVL |
